Kd data for four variants are collected here from publication PMC1540706 (2006).

What is called Kd is the free concentration of one partner at which half of the binding sites on the other are occupied at equilibrium, for simple one-to-one binding.

B1: Eps15 P-short peptide [not stated] / human β2-appendage (700–937) used for ITC [human] (parent complex)
chain 1: SFGDGFADFSTL
chain 2: IGMAPGGYVAPKAVWLPAVKAKGLEISGTFTHRQGHIYMEMNFTNKALQHMTDFAIQFNKNSFGVIPSTPLAIHTPLMPNQSIDVSLPLNTLGPVMKMEPLNNLQVAVKNNIDVFYFSCLIPLNVLFVEDGKMERQVFLATWKDIPNENELQFQIKECHLNADTVSSKLQNNNVYTIAKRNVEGQDMLYQSLKLTNGIWILAELRIQPGNPNYTLSLKCRAPEVSQYIYQVYDSILKN
B2: β-arrestin P-long peptide [not stated] / human β2-appendage (700–937) used for ITC [human] (parent complex)
chain 1: DDDIVFEDFARQRLKGMKDD
chain 2: B1 chain 2
B3: 6× His human Eps15-MD (530–791) [human] / human β2-appendage (700–937) used for ITC [human] (parent complex)
chain 1: STSSSETANLNEHVEGQSNLESEPIHQESPARSSPELLPSGVTDENEVTTAVTEKVCSELDNNRHSKEEDPFNVDSSSLTGPVADTNLDFFQSDPFVGSDPFKDDPFGKIDPFGGDPFKGSDPFASDCFFRQSTDPFATSSTDPFSAANNSSITSVETLKHNDPFAPGGTVVAASDSATDPFASVFGNESFGGGFADFSTLSKVNNEDPFRSATSSSVSNVVITKNVFEETSVKSEDEPPALPPKIGTPTRPCPLPPGKRSI
chain 2: B1 chain 2

The variants in the first test derive from B1. Kind of test: ITC. (In ITC the heat of successive injections is recorded.)
With chain 2 Y189V, the Kd amounted to 59 µM.

The variants in another test derive from B2. The test can be described thus: ITC; stoichiometry (1.2).
With chain 2 R180A, the Kd was 0.17 µM.

In another test the parent is B2. The test can be described thus: ITC.
As to chain 2 Y116A, the Kd was determined as 1.7 µM.

The variants in a further test derive from B3. Kind of test: ITC; stoichiometry (1.9).
Consider chain 2 Y189V, for which the Kd is 11 µM.
